B1: HDV Ribozyme (parent)
chain: GGCCGGCAUGGUCCCAGCCUCCUCGCUGGCGCCGGCUGGGCAACAUUCCGAGGGGACCGUCCCCUCGGUAAUGGCGAAUGGGACCCA

Variants of: B1
Test: self-cleavage, relative activity (ratio to wild type); higher = more cleavage; co-transcriptional
In the case of GGCCGGCAUCGUCCCAGCCUCCUCGCUGGCGCCGGCUGGGCAACAUUCCGAGGGGACCGUCCUCUCGGUAAUGGCGAAUGGGACCCA, the self-cleavage is reported as 1.03.
GGCCGGCAUAGUCCCAGCCUCCUCGCUGGCGCCAGCUGGGCAACAUUCCGAGGGGACCGUCCCCUCGGUAAUGGCGAAUGGGACCCA gave a self-cleavage of 0.164.
Variant GGCCGGCAUAGUCCCAGCCUCCUCGCUGGCGCCUGCUGGGCAACAUUCCGAGGGGACCGUCCCCUCGGUAAUGGCGAAUGGGACCCA has a self-cleavage of 0.257.
GGCCGGCAUAGUCCCAGCCUCCUCGCUGGCGCCGGCUGGGCAACAUUCCGAGGGGACCGUCCCCGCGGUAAUGGCGAAUGGGACCCA gave a self-cleavage of 0.767.
Work on GGCCGGCAUAGUCCCAGCCUCCUCGCUGGCGCCGGCUGGGCAACAUUCCGAGGUGACCGUCCCCUCGGUAAUGGCGAAUGGGACCCA yielded a self-cleavage of 0.84.
With GGCCGGCAUAGUCCCAGCCUCCUCGCUGGCGCCGGCUGGGCAACAUUCCGAGGCGACCGUCCCCUCGGUAAUGGCGAAUGGGACCCA the self-cleavage was 0.582.
With GGCCGGCAUAGUCCCAGCCUCCUCGCUGGCGCCGGCUGGGCAACAUUCCGAGGGGACCGUCCCCUCGGUAAUAGCGAAUGGGACCCA the self-cleavage was 0.175.
GGCCGGCAUCGUCCCAGCCUCCUCGCUGGCGGCGGCUGGGCAACAUUCCGAGGGGACCGUCCCCUCGGUAAUGGCGAAUGGGACCCA gave a self-cleavage of 0.0773.
For GGCCGGCAUAGUCCCAGCCUCCUCGCCGGCGCCGGCUGGGCAACAUUCCGAGGGGACCGUCCCCUCGGUAAUGGCGAAUGGGACCCA, the self-cleavage was 0.759.
Work on GGCCGGCAUAGUCCCAGCCUCCUCGCUGGCGCCGGCUGCGCAACAUUCCGAGGGGACCGUCCCCUCGGUAAUGGCGAAUGGGACCCA yielded a self-cleavage of 0.182.
For GGCCGGCAUCGUCCCAGCCUCCUCGCUGGCGCCGGCUGGGCAACAUUCCGAGGGGACCGUCCCCUCGGUAAUGGUGAAUGGGACCCA, the self-cleavage was 0.109.
GGCCGGCAUCGUCCCAGCCUCCUCGCUGGCGCCGGCUGGGCAACAUUCCCAGGGGACCGUCCCCUCGGUAAUGGCGAAUGGGACCCA gave a self-cleavage of 0.923.
GGCCGGCAUCGUCCCAGCCUCCUCGCUGGCGCCGGCUGGGCAACAUUCCGAGGGGACCGUCCCCUCGGUAAUGGCGAAUGAGACCCA showed a self-cleavage of 0.131.
For GGCCGGCAUCGUCCCAGCCUCCUCGCUGGCGCCGGCUGGGCAACAUUCCGAGGUGACCGUCCCCUCGGUAAUGGCGAAUGGGACCCA, the self-cleavage was 0.897.
GGCCGGCAUAGUCCCAGCCUCCUCGCUGGCGCCGGCUGGGCAACAGUCCGAGGGGACCGUCCCCUCGGUAAUGGCGAAUGGGACCCA gave a self-cleavage of 0.536.
Variant GGCCGGCAUCGUCCCAGCCUCCUCGCUGGCGCCGGCUGGGCAACAUUCCGAGGGGACAGUCCCCUCGGUAAUGGCGAAUGGGACCCA has a self-cleavage of 0.886.
Work on GGCCGGCAUCGUCCCAGCCUCCUCGCUGGCGCCGGCUGGGCAACAUUCCGAGGGGGCCGUCCCCUCGGUAAUGGCGAAUGGGACCCA yielded a self-cleavage of 0.532.
GGCCGGCAUCGUCCCAGCCUCCUCGCUGGCGCCGGCUGGGCAACAUUCCGAGGGGUCCGUCCCCUCGGUAAUGGCGAAUGGGACCCA showed a self-cleavage of 0.957.
Work on GGCCGGCAUCGUCCCACCCUCCUCGCUGGCGCCGGCUGGGCAACAUUCCGAGGGGACCGUCCCCUCGGUAAUGGCGAAUGGGACCCA yielded a self-cleavage of 0.208.
GGCCGGCAUCGUCCCAACCUCCUCGCUGGCGCCGGCUGGGCAACAUUCCGAGGGGACCGUCCCCUCGGUAAUGGCGAAUGGGACCCA showed a self-cleavage of 0.804.
For GGCCGGCAUAGUCCCAGCCUCCUCGCUGGCGCCGGCUGGGCAACAUUCCGAGGGGACCGUCCCCUCGGCAAUGGCGAAUGGGACCCA, the self-cleavage was 0.997.
For GGCCGGCAUAGUCCCAGCCUCCUCGCUGGCGCCGGCUGGGCAACAUUCCGAGGGGACCGUCCCCUCGGUAAUGCCGAAUGGGACCCA, the self-cleavage was 0.105.
Variant GGCCGGCAUCGUCCCAGCCUCCUCGCUGGCGCCGGCUGGGCAACAUUCCGAGGGGACCGUCCCCUCGGUAAUGGCGGAUGGGACCCA has a self-cleavage of 0.458.
Work on GGCCGGCAUCGUCCCAGCCUCCUCGCUGGCGCCGGCUGGGCAACAUUCCGAGGGGACCGUCCCCUCGGUAAUGGCGACUGGGACCCA yielded a self-cleavage of 0.185.
In the case of GGCCGGCAUCGUCCCAGCCUCCUCGCUGGCGCCGGCUGGGCAACAUUCCGAGGGGACCGUCCCCUCGGUAAUGGCGAUUGGGACCCA, the self-cleavage is reported as 0.222.
With GGCCGGCAUAGUCCCAGCCUCCUCGCUGGCGCCGGCUGGGCAACAUUCCGAGGGCACCGUCCCCUCGGUAAUGGCGAAUGGGACCCA the self-cleavage was 0.734.
With GGCCGGCAUCGUCCCAGCCUCCUCGCUGGCGCCGGCUGGGCAACAUUCCGAGGGGACCGUCCCCUCGGUAAUGGCGAAUGGGACCCC the self-cleavage was 1.17.
With GGCCGGCAUCGUCCCAGCCUCCUCGCUGGCGCCGGCUGGGCAACAUUCCGAGGGGACCGUCCCCUCGGUAAUGGCGAAUGGGACCCG the self-cleavage was 0.887.
Work on GGCCGGCAUAGUCCCAGCCUCCUCGCUGGCGCCGGCUGGGCAACAUUCCGAGGGGACCGUCCCCUCGGUAAAGGCGAAUGGGACCCA yielded a self-cleavage of 0.485.
Variant GGCCGGCAUCGUCCCAGCCUCCUCGCUGGCGCCGGCUGGGCAACAUUCCGAGGGGACCGUCCCCUCGGUAAUGGCUAAUGGGACCCA has a self-cleavage of 1.16.
GGCCGGCAUCGUCCCAGCCUCCUCGCUGGCGCCGGCUGGGCAACAUUCCGAGGGGACCGUCCCCUCGGUAAUGGCCAAUGGGACCCA gave a self-cleavage of 0.861.
With GGCCGGCAUCGUCCCAGCCUCCUCGCUGGCGCCGGCUGGGCAACAUUCCGAGGGGACCGUGCCCUCGGUAAUGGCGAAUGGGACCCA the self-cleavage was 0.808.
GGCCGGCAUCGUCCCAGCCUCCUCGCUGGCGCCGGCUGGGCGACAUUCCGAGGGGACCGUCCCCUCGGUAAUGGCGAAUGGGACCCA gave a self-cleavage of 0.151.
For GGCCGGCAUCGUCCCAGCCUCCUCGCUGGCGCCGGCUGGGCUACAUUCCGAGGGGACCGUCCCCUCGGUAAUGGCGAAUGGGACCCA, the self-cleavage was 0.289.
Work on GGCCGGCAUAGUCCCAGCCCCCUCGCUGGCGCCGGCUGGGCAACAUUCCGAGGGGACCGUCCCCUCGGUAAUGGCGAAUGGGACCCA yielded a self-cleavage of 0.0234.
For GGCCGGCAUCGUCCCAGCCUCCUCUCUGGCGCCGGCUGGGCAACAUUCCGAGGGGACCGUCCCCUCGGUAAUGGCGAAUGGGACCCA, the self-cleavage was 0.0941.
GGCCGGCAUCGUCCCAGCCUCCUCGCUGGCGCCGGCUGGGCAACUUUCCGAGGGGACCGUCCCCUCGGUAAUGGCGAAUGGGACCCA showed a self-cleavage of 1.11.
Variant GGCCGGCAUCGUCCCAGCCUCCUCGCUGGCGCCGGCUGGGCAACCUUCCGAGGGGACCGUCCCCUCGGUAAUGGCGAAUGGGACCCA has a self-cleavage of 0.231.
Variant GGCCGGCAUAGUCCCAGCCUCCUCGCUGGCGCCGGCUGGGCAACAUUCCCAGGGGACCGUCCCCUCGGUAAUGGCGAAUGGGACCCA has a self-cleavage of 0.513.
GGCCGGCAUCGUCCCAGCCUCCUCGCUGGCGCCGGCUGGGCAACAUUCCGAGGGGACCGUCCCCUCGGUAAUGGCGAAUGGGACCAA gave a self-cleavage of 1.04.
For GGCCGGCAUAGUCCCAGCCUCCUCGCUGGCGCCGGCUGGGCAACAUUCCGAGGGGACCGUCCCCUCUGUAAUGGCGAAUGGGACCCA, the self-cleavage was 0.767.
For GGCCGGCAUAGUCCCAGCCUCCUCGCUGGCGCCGGCUGGGCAACAUUCCGAGGGGACCGUCCCCUCCGUAAUGGCGAAUGGGACCCA, the self-cleavage was 0.599.
Variant GGCCGGCAUCGUCCCAGCCUCCUCGCUGGCGCCGGCUGGGCAACAUUCCGAGGGAACCGUCCCCUCGGUAAUGGCGAAUGGGACCCA has a self-cleavage of 1.11.
Work on GGCCGGCAUCGUCCCAGCCUCCUCGCUGGCGCCAGCUGGGCAACAUUCCGAGGGGACCGUCCCCUCGGUAAUGGCGAAUGGGACCCA yielded a self-cleavage of 0.166.
In the case of GGCCGGCAUCGUCCCAGCCUCCUCGCUGGCGCCUGCUGGGCAACAUUCCGAGGGGACCGUCCCCUCGGUAAUGGCGAAUGGGACCCA, the self-cleavage is reported as 0.175.
GGCCGGCAUAGUCCCAGCCUCCUCGCUGGCGCCGGCUGGGCAACAUUCCGAGGGGACCGACCCCUCGGUAAUGGCGAAUGGGACCCA showed a self-cleavage of 0.739.
GGCCGGCAUCGUCCCAGCCUCCUCGCUGGCGCCGGCUGGGCAACAUUCCGAGUGGACCGUCCCCUCGGUAAUGGCGAAUGGGACCCA showed a self-cleavage of 0.91.
With GGCCGGCAUCGUCCCAGCCUCCUCGCUGGCGCCGGCUGGGCAACAUUCCGAGGGGAUCGUCCCCUCGGUAAUGGCGAAUGGGACCCA the self-cleavage was 1.11.
GGCCGGCAUAGUCCCAGCCUCCUCGCUGGCGCCGGCUGGGCAACAUUCCGAGGGGACCUUCCCCUCGGUAAUGGCGAAUGGGACCCA showed a self-cleavage of 0.95.
Work on GGCCGGCAUCGUCCCAGCCUCCUCGCUGGCGCCGGCUGGGCAACAUUCCGAGGGGACCGUCCCCUCAGUAAUGGCGAAUGGGACCCA yielded a self-cleavage of 0.712.
GGCCGGCAUCGUCCCAGCCUCCUCGCUGGCGCCGGCUGGGCAACAUUCCGAGGGGACCGUCCCCUCCGUAAUGGCGAAUGGGACCCA showed a self-cleavage of 1.01.
Work on GGCCGGCAUCGUCCCAGCCUCCUCGCUGGCGCCGGCUGGGCAACAUUCGGAGGGGACCGUCCCCUCGGUAAUGGCGAAUGGGACCCA yielded a self-cleavage of 0.453.
GGCCGGCAUCGUCCCAGCCUCCUCGCUGGCGCCGGCUGGACAACAUUCCGAGGGGACCGUCCCCUCGGUAAUGGCGAAUGGGACCCA showed a self-cleavage of 0.95.
For GGCCGGCAUAGUCCCAGCCUCCUCGCUGGCGCCGGCUGGGCAACAUUCCGAGGGGACCGUCCCCUCGGUAAUGGCCAAUGGGACCCA, the self-cleavage was 0.772.
GGCCGGCAUAGUCCCAGCCUCCUCGCUGGCGCCGGCUGGGCAACAUUCCGAGGGGACCGUCCCCUCGGUAAUGGCAAAUGGGACCCA showed a self-cleavage of 1.04.
With GGCCGGCAUAGUCCCAGCCUCCUCGCUGGCGCCGGCUGGGCAACAUUCCGAGGGGACCGUCCCCUCGGUAAUGGCUAAUGGGACCCA the self-cleavage was 0.997.
For GGCCGGCAUCGUCCCAGCCUCCUCGCUGGCGCCGGCUGGGCAACAUUCCGAGGGGACCGUCCCCUCGGUAAUGGCGAAUGGGACUCA, the self-cleavage was 1.07.
In the case of GGCCGGCAUCGUCCCAGCCUCCUCGCUGGCGCCGGCUGGGCAACAUUCCGAGGGGACCGUCCCCUCGGUAAUGGCGAAUGGGACACA, the self-cleavage is reported as 0.598.
For GGCCGGCAUCGUCUCAGCCUCCUCGCUGGCGCCGGCUGGGCAACAUUCCGAGGGGACCGUCCCCUCGGUAAUGGCGAAUGGGACCCA, the self-cleavage was 1.11.
Variant GGCCGGCAUCGUCCCAGCCUCCUCGCUGGCGCCGGCUGGGCAACAUUCCGAGGGGACCGUCCCCUCGGUCAUGGCGAAUGGGACCCA has a self-cleavage of 0.923.
GGCCGGCAUCGUCCCAGCCUCCUCGCUGGCGCCGGCUGGGCAAUAUUCCGAGGGGACCGUCCCCUCGGUAAUGGCGAAUGGGACCCA gave a self-cleavage of 0.582.
Variant GGCCGGCAUCGUCCCGGCCUCCUCGCUGGCGCCGGCUGGGCAACAUUCCGAGGGGACCGUCCCCUCGGUAAUGGCGAAUGGGACCCA has a self-cleavage of 0.453.
Work on GGCCGGCAUCAUCCCAGCCUCCUCGCUGGCGCCGGCUGGGCAACAUUCCGAGGGGACCGUCCCCUCGGUAAUGGCGAAUGGGACCCA yielded a self-cleavage of 0.38.
For GGCCGGCAUCCUCCCAGCCUCCUCGCUGGCGCCGGCUGGGCAACAUUCCGAGGGGACCGUCCCCUCGGUAAUGGCGAAUGGGACCCA, the self-cleavage was 0.462.

Source: the RNAGym collection of RNA variant scans (doi:10.7554/elife.80360)
